According to PMC3461841 (Journal of molecular biology, 2012):

T1: human Dicer C-terminal fragment (hDcr-C: 1235-1922), bacterially expressed (human, UniProt Q9UPY3 1235-1922)
T1 sequence (looked up): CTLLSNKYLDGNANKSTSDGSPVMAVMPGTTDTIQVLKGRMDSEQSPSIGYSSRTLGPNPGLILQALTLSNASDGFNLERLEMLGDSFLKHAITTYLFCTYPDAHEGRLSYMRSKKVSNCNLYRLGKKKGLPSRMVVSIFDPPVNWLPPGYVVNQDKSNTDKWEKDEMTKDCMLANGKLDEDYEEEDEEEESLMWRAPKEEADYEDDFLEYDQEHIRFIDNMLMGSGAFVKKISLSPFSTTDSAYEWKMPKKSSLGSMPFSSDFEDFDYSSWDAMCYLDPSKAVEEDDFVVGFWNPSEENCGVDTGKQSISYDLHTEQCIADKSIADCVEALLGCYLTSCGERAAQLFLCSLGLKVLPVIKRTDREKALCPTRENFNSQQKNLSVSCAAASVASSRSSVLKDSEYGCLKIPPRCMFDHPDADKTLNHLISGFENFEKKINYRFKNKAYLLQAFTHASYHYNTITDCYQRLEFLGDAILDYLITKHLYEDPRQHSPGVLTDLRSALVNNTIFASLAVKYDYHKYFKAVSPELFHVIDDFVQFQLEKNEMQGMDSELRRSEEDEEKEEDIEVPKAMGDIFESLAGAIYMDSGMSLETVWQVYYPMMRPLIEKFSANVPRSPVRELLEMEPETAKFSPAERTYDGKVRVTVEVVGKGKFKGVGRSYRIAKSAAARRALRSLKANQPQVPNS

T2: MBP-ATPase/hel domain of human Dicer with a C-terminal hemagglutinin (HA) epitope tag (human, UniProt Q9UPY3 1-604)
T2 sequence (looked up): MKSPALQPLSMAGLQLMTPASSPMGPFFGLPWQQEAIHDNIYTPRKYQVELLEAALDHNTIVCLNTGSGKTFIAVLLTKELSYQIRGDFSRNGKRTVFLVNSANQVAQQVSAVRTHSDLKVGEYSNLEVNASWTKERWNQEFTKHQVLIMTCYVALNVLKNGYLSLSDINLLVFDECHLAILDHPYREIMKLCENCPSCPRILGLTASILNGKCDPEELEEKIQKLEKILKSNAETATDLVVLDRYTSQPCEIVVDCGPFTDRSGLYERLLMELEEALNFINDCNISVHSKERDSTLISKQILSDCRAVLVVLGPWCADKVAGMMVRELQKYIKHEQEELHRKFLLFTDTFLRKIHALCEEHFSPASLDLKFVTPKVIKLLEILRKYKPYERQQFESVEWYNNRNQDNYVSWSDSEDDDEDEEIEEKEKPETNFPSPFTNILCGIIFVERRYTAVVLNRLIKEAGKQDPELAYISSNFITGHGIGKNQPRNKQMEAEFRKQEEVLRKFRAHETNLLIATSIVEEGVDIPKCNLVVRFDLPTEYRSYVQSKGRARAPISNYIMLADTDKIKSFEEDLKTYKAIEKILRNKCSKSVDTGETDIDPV

T3: ATPase/helicase domain of human Dicer (1-604) fused with maltose-binding protein (human, UniProt Q9UPY3 1-604)
T3 sequence (looked up): T2 sequence (looked up)

T4: DP (DUF283-PAZ) (Homo sapiens, UniProt Q9UPY3 605-1068)
T4 sequence: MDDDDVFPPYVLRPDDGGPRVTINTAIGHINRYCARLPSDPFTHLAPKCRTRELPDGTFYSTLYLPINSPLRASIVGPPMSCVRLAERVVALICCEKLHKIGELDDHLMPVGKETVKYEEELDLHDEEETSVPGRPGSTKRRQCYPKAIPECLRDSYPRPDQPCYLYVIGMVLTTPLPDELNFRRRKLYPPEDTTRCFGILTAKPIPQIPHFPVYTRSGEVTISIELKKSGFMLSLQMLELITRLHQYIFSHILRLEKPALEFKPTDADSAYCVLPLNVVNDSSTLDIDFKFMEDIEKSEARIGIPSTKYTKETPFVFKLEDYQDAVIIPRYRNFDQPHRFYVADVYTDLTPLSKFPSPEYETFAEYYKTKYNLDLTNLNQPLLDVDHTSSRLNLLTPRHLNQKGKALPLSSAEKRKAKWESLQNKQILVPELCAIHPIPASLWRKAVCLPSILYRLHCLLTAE

T5: MBP-ATPase/hel (Homo sapiens, UniProt Q9UPY3 1-604)
T5 sequence: T2 sequence (looked up)

T6: hDcr-C (RNase IIIa, IIIb, dsRBD) (Homo sapiens, UniProt Q9UPY3 1235-1922)
T6 sequence: T1 sequence (looked up)

B1: human Dicer DUF283-PAZ fragment (DP: 605-1068) (domain or fragment, UniProt Q9UPY3 605-1068, looked up)
chain: T4 sequence
B2: human TAR-RNA binding protein (hTRBP), the larger isoform TRBP2 (natural protein, UniProt Q15633-1 1-366, looked up)
chain: MSEEEQGSGTTTGCGLPSIEQMLAANPGKTPISLLQEYGTRIGKTPVYDLLKAEGQAHQPNFTFRVTVGDTSCTGQGPSKKAAKHKAAEVALKHLKGGSMLEPALEDSSSFSPLDSSLPEDIPVFTAAAAATPVPSVVLTRSPPMELQPPVSPQQSECNPVGALQELVVQKGWRLPEYTVTQESGPAHRKEFTMTCRVERFIEIGSGTSKKLAKRNAAAKMLLRVHTVPLDARDGNEVEPDDDHFSIGVGSRLDGLRNRGPGCTWDSLRNSVGEKILSLRSCSLGSLGALGPACCRVLSELSEEQAFHVSYLDIEELSLSGLCQCLVELSTQPATVCHGSATTREAARGEAARRALQYLKIMAGSK
B3: pre-hlet-7a-1 (structured_RNA)
RNA: UGAGGUAGUAGGUUGUAUAGUUUUAGGGUCACACCCACCACUGGGAGAUAACUAUACAAUCUACUGUCUUACC
B4: 37ab (dsRNA)
RNA 1: UGAGGUAGUAGGUUGUAUAGUUUGAAAGUUCACGAUU
RNA 2: UCGUGAACUUUCAAACUAUACAACCUACUACCUCAUU
B5: 21ab (siRNA/product mimic) (dsRNA)
RNA 1: UAUACAAUGUGCUAGCUUUCU
RNA 2: AAAGCUAGCACAUUGUAUAGU

Assays:
[1] = target: T1, human Dicer C-terminal fragment …; assay: SEC
[2] = target: T2, MBP-ATPase/hel domain of human Dicer …; assay: co-IP
[3] = target: T3, ATPase/helicase domain of human Dicer …; assay: SEC
DP (DUF283-PAZ) = target: T4, DP (DUF283-PAZ); assay: filter binding
MBP-ATPase/hel = target: T5, MBP-ATPase/hel; assay: filter binding
[4] = target: FL-hDicer (full-length human Dicer) (Homo sapiens, UniProt Q9UPY3 1-1922); assay: filter binding
[5] = target: T6, hDcr-C (RNase IIIa, IIIb, dsRBD); assay: filter binding

Sequence of FL-hDicer (full-length human Dicer) (Q9UPY3 whole entry): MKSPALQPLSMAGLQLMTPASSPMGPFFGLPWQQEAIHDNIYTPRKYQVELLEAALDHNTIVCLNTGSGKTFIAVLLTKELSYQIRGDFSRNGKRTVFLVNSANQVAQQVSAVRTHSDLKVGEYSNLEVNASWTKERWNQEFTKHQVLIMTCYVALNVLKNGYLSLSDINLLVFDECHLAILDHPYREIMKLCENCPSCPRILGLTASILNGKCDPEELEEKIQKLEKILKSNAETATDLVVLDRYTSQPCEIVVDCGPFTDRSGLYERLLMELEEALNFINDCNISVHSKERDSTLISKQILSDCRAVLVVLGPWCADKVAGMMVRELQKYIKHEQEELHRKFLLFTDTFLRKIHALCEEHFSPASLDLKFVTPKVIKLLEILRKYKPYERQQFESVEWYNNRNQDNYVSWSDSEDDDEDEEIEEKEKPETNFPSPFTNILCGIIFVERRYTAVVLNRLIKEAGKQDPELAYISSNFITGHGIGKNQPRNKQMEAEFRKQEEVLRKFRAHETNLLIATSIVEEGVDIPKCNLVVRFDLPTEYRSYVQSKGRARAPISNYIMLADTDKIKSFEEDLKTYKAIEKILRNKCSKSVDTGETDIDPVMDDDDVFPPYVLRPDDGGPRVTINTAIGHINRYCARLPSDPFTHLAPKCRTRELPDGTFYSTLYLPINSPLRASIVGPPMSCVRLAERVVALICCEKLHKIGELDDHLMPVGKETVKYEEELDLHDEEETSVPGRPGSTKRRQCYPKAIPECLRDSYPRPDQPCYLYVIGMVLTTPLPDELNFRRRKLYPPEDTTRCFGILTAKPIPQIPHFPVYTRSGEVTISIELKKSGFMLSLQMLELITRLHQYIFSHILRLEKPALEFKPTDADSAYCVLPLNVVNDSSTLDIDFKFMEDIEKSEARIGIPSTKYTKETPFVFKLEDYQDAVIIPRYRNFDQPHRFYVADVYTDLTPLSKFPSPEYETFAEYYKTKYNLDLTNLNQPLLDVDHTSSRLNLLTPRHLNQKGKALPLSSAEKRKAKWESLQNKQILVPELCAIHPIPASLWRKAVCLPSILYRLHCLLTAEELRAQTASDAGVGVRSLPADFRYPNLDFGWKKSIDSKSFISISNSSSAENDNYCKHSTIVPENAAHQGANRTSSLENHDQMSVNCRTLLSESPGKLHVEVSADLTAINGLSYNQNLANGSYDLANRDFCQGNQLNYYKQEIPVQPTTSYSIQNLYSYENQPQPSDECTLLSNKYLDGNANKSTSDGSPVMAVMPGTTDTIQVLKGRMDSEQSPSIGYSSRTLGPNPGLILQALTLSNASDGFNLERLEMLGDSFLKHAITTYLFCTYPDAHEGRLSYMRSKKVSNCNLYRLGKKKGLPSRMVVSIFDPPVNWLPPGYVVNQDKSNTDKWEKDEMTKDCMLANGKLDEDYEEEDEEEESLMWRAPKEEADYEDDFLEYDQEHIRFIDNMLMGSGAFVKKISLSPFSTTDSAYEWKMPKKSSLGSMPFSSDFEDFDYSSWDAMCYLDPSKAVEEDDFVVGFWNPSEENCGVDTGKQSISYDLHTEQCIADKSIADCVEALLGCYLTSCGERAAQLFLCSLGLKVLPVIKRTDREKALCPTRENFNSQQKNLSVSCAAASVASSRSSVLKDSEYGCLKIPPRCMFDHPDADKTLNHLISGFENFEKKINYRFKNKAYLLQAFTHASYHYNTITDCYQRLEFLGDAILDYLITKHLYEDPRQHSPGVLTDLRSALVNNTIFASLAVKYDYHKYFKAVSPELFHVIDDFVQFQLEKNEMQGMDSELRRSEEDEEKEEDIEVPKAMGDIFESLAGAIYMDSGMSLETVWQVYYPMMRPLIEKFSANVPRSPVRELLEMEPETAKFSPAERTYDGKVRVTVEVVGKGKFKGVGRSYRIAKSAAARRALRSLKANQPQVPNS

| Binder | Kd (DP (DUF283-PAZ)) [nM] | Kd (MBP-ATPase/hel) [nM] | Kd [4] [nM] | also measured |
| --- | --- | --- | --- | --- |
| B1 | – | – | – | binding result [1]: binds |
| B2 | – | – | – | binding result [2]: binds; binding result [3]: binds |
| B3 | ~1000 | 96 ± 10 | 39 ± 5 | – |
| B4 | 200 ± 34 | 476 ± 30 | 53 ± 8 | Kd [5]: 300 ± 40 nM |
| B5 | 220 ± 40 | – | 144 ± 23 | – |
